No end group written: not given here.
Key:
[1] = relative to native protein; cited from earlier work
[2] = Serum half-life after intravenous injection into mice; format: in vivo; conditions: for serum half-life: mice, intravenous injection
Method: uPA1-48 was produced in yeast, purified and concentrated into PBS. When produced in yeast, uPA1-48 lacks a fucosylation which is present when the protein is expressed in mammalian cells. The purified protein was injected intravenously into mice. Blood samples were collected at various time points, and the amount of uPA1-48 present in each sample was determined.
Pharmaceutical preparations comprising the conjugates of uPA1-48 and PEG were injected intravenously into mice. Blood samples were collected at various time points, and the amount of conjugate present in the blood was determined for each time point.

[3] = Pharmacokinetics after single IV bolus or SC dose in cynomologous monkeys (active protein measured by receptor binding activity); format: in vivo; conditions: for t1/2: functional half-life
Method: As above, blood samples were collected at various time points, and the amount of conjugate present in the blood was determined for each time point. The method measures the receptor binding activity instead of just the total protein present; thus the amount of protein measured as a function of time represents the active protein, and the measured half-life represents functional half-life. The data is shown in Table 1, and a graph illustrating plasma disposition of PEG hu1-48 over time is included in FIG. 1.

uPAR = uPAR (Homo sapiens, UniProt Q03405); assay: uPAR receptor binding activity (method of Goodson et al.); conditions: for IC50: uPAR receptor binding
[4] = test system: MDA MB231 cells (human breast carcinoma); assay: Breast carcinoma MDA MB231 subcutaneous tumor growth in NOD/Ltz mice; format: in vivo; conditions: for tumor growth reduced: vs vehicle control at 9 weeks, p=0.05
Method: Thirty NOD/Ltz mice were injected subcutaneously with 2×10^6 MDA MB231 cells (human breast carcinoma) on day 0. The mice were divided into three groups of 10 mice each, and the treatment of the three groups of mice began on day 1. Twice every week, group 1 was subcutaneously injected with 30 μg PEG hu1-48 (20 kD PEG), group 2 was subcutaneously injected with 300 μg PEG hu1-48 (20 kD PEG), and group 3 was subcutaneously injected with the vehicle (PBS). Treatment was continued for 9 weeks. The primary tumor volume (mm^3) was measured three times per week for 12 weeks, and the experiment was terminated when mean tumor volume in vehicle control group exceeded 2000 mm^3.

[5] = test system: PC-3 mm2 cells (human prostate carcinoma); assay: Human prostate carcinoma PC-3 mm2 orthotopic tumor growth in nude mice; format: in vivo; conditions: 300 μg SC twice per week for 3 weeks, vs vehicle control
Method: The prostates of 18 nude mice were injected with 1×10^5 PC-3 mm2 cells (human prostate carcinoma) on day 0. The mice were divided into two groups of nine mice each, and treatment was initiated on day 3 and continued for 3 weeks. Twice per week, the mice of group 1 received 300 μg PEG hu1-48 (20 kD PEG) by subcutaneous administration, and the mice of group 2 received vehicle only by subcutaneous administration. Three weeks after the implantation of the human prostate carcinoma cells, the prostates of the mice were excised and weighed to determine effects of treatment on the primary tumor growth.

[6] = test system: KM12 L4A cells (human colorectal adenocarcinoma); assay: Colon cancer tumor growth and liver metastases, intrasplenic KM12 L4A in nude mice; format: in vivo; conditions: 250 μg BID SC five times per week, 4 weeks
Method: Twenty 10 week old Nude male mice were injected intrasplenically with 1×10^6 KM12 L4A cells (human colorectal adenocarcinoma) on day 0. The mice were divided into two groups, and treatment was initiated on day 1 post-implantation and continued for 4 weeks. Group 1, consisting of 10 mice, were subcutaneously injected five times per week with PEG hu1-48 (20 kD PEG) and 250 μg BID while group 2 mice acted as the control and were injected with vehicle only. The animals were sacrificed all 5 weeks, and the spleens of the animals from each group were weighed to determine primary tumor burden (FIG. 4A). The livers were weighed to determine metastatic tumor burden, and were scored by histological examination for incidence of metastases (FIG. 4B). […] For the purposes of comparison, the average splenic weight for mice in this age group is about 240 mg.

[7] = test system: KM12 L4A cells (human colorectal carcinoma cancer with high metastatic potential); assay: Liver metastases in post-resection colorectal carcinoma model (KM12 L4A, spleen removed); format: in vivo, mice; conditions: 1000 μg SC twice per week, vs vehicle
Method: Thirty male Nu/Nu mice were injected intrasplenically with 0.5×10^6 KM12 L4A cells (human colorectal carcinoma cancer with high metastatic potential), and the spleens of all the mice were removed 3 days after implantation of the KM12 L4A cells. The mice were divided into two treatment groups, and treatment was began 6 days after implantation. The first group of 15 mice received subcutaneous administrations of 1000 μg PEG hu1-48(20 kD PEG) twice per week, and the second group of 15 mice received saline vehicle only and served as the control group. The experiment was terminated 27 days after implantation of the KM12 L4A cells, and the weight of the livers were determined and histologically scored for metastatic foci.

Chain of uPAR (Q03405 23-335): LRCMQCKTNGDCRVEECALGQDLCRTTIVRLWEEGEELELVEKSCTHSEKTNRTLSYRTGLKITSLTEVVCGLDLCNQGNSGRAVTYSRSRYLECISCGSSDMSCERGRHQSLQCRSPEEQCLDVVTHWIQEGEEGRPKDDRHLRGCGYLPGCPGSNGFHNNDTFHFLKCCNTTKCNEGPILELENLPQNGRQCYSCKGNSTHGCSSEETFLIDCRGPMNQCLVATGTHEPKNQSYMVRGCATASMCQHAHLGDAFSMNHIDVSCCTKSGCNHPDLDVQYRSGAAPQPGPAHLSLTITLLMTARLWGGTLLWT

For “IL-8/PEG20 kD conjugate: literature conjugate of IL-8 with PEG20 kD (Gaertner and Offord 1996)”, the “change in half-life on conjugation to PEG20 kD” value [1] is given as “no change”.
For “PEG20 kD to IL-1ra: literature conjugate of PEG20 kD with IL-1ra (Gaertner and Offord 1996)”, the “change in half-life on conjugation to PEG20 kD” value [1] is listed as “almost seven-fold increase”.
“uPA1-48 /PEG3.4 kD conjugate: uPA1-48 N-terminal aldehyde coupled to PEG hydrazide of nominal average molecular weight 3.4 kD ({PEG 3.4 kDa hydrazone}-SNELHQVPSNCDCLNGGTCVSNKYFSNIHWCNCPKKFGGQHCEIDKSK; cysteine pairing not given here; UniProt P00749 21-68, looked up, fragment)” gave a serum half-life [2] of 0.2 h.
In the case of “uPA1-48/PEG5 kD conjugate: uPA1-48 N-terminal aldehyde coupled to PEG hydrazide of nominal average molecular weight 5 kD ({PEG 5 kDa hydrazone}-SNELHQVPSNCDCLNGGTCVSNKYFSNIHWCNCPKKFGGQHCEIDKSK; cysteine pairing not given here; UniProt P00749 21-68, looked up, fragment)”, the serum half-life [2] is reported as 0.733 h.
In the case of “uPA1-48/PEG20 kD conjugate: uPA1-48 N-terminal aldehyde coupled to PEG hydrazide of nominal average molecular weight 20 kD ({PEG 20 kDa hydrazone}-SNELHQVPSNCDCLNGGTCVSNKYFSNIHWCNCPKKFGGQHCEIDKSK; cysteine pairing not given here; UniProt P00749 21-68, looked up, fragment)”, the serum half-life [2] is reported as 2.17 h, the “increase in serum half-life” value ([2]; relative to unmodified uPA1-48, mice) is reported as 13 fold and the t1/2 ([3]; monkey F67-344F, IV, 10 mg/kg) is reported as 6.9 h. The t1/2 ([3]; monkey F67-344F, SC, 10 mg/kg) was 23 h, the t1/2 ([3]; monkey F7238F, IV, 10 mg/kg) was 7.6 h and the t1/2 ([3]; monkey F7238F, SC, 10 mg/kg) was 26 h. The t1/2 ([3]; monkey F7281F, IV, 8.8 mg/kg) was 6.4 h, the t1/2 ([3]; monkey F7281F, SC, 10 mg/kg) was 14 h and the AUC ([3]; monkey F67-344F, IV, 10 mg/kg) was 3297918 nM·min. It also gave a CL ([3]; monkey F67-344F, IV, 10 mg/kg) of 0.6 mL/min/kg, a Cmax ([3]; monkey F67-344F, IV, 10 mg/kg) of 19.143 µM and an F ([3]; monkey F67-344F, IV, 10 mg/kg) of 100%. The MRT ([3]; monkey F67-344F, IV, 10 mg/kg) was 7.4 h, the Tmax ([3]; monkey F67-344F, IV, 10 mg/kg) was 0 h and the Vss ([3]; monkey F67-344F, IV, 10 mg/kg) was 0.252 L/kg. It also gave an AUC ([3]; monkey F67-344F, SC, 10 mg/kg) of 3803604 nM·min, a Cmax ([3]; monkey F67-344F, SC, 10 mg/kg) of 2.596 µM and an F ([3]; monkey F67-344F, SC, 10 mg/kg) of 115%. The MRT ([3]; monkey F67-344F, SC, 10 mg/kg) was 31 h, the Tmax ([3]; monkey F67-344F, SC, 10 mg/kg) was 8 h and the AUC ([3]; monkey F7238F, IV, 10 mg/kg) was 3002085 nM·min. The CL ([3]; monkey F7238F, IV, 10 mg/kg) was 0.6 mL/min/kg, the Cmax ([3]; monkey F7238F, IV, 10 mg/kg) was 30.564 µM and the F ([3]; monkey F7238F, IV, 10 mg/kg) was 100%. The MRT ([3]; monkey F7238F, IV, 10 mg/kg) was 6.6 h, the Tmax ([3]; monkey F7238F, IV, 10 mg/kg) was 0 h and the Vss ([3]; monkey F7238F, IV, 10 mg/kg) was 0.249 L/kg. It also gave an AUC ([3]; monkey F7238F, SC, 10 mg/kg) of 3057502 nM·min, a Cmax ([3]; monkey F7238F, SC, 10 mg/kg) of 2.155 µM and an F ([3]; monkey F7238F, SC, 10 mg/kg) of 101%. It also gave an MRT ([3]; monkey F7238F, SC, 10 mg/kg) of 28 h, a Tmax ([3]; monkey F7238F, SC, 10 mg/kg) of 4 h and an AUC ([3]; monkey F7281F, IV, 8.8 mg/kg) of 1987996 nM·min. The CL ([3]; monkey F7281F, IV, 8.8 mg/kg) was 0.8 mL/min/kg, the Cmax ([3]; monkey F7281F, IV, 8.8 mg/kg) was 19.199 µM and the F ([3]; monkey F7281F, IV, 8.8 mg/kg) was 100%. The MRT ([3]; monkey F7281F, IV, 8.8 mg/kg) was 5.1 h, the Tmax ([3]; monkey F7281F, IV, 8.8 mg/kg) was 0 h and the Vss ([3]; monkey F7281F, IV, 8.8 mg/kg) was 0.255 L/kg. It also gave an AUC ([3]; monkey F7281F, SC, 10 mg/kg) of 2337888 nM·min, a Cmax ([3]; monkey F7281F, SC, 10 mg/kg) of 1.126 µM and an F ([3]; monkey F7281F, SC, 10 mg/kg) of 103%. The MRT ([3]; monkey F7281F, SC, 10 mg/kg) was 31 h, the Tmax ([3]; monkey F7281F, SC, 10 mg/kg) was 8 h and the “decrease in biological activity” value (uPAR; relative to uPA1-48, uPAR binding) was “four-fold”. For the same substance, the IC50 (uPAR) was 1 nM, the tumor growth reduced ([4]; 30 μg SC twice every week) was 77% and the tumor growth reduced ([4]; 300 μg SC twice every week) was 98%. For the same substance, the “effect after treatment was stopped (day 63)” value ([4]; 300 μg group observed additional 3 weeks, tumors evident by day 84) was “cytostatic effect”, the “reduction in primary tumor growth (prostate weight)” value [5] was ~57% and the “incidence of liver metastases” value ([6]; 6 control mice had metastases, p<0.005) was “no observed metastases”. The “mice with visible tumors in the spleen” value ([6]; of 10 mice) was 7 mice, the average spleen weight ([6]; ±113, control 641 mg, normal about 240 mg) was 269 mg and the “overall liver tumor burden” value ([7]; day 27) was “trend toward a reduction”. The “metastases to the liver” value ([7]; p value <0.05, day 27) was “significantly reduced metastases to the liver”.
Substance “uPA1-48/PEG25 kD conjugate: uPA1-48 N-terminal aldehyde coupled to PEG hydrazide of nominal average molecular weight 25 kD ({PEG 25 kDa hydrazone}-SNELHQVPSNCDCLNGGTCVSNKYFSNIHWCNCPKKFGGQHCEIDKSK; cysteine pairing not given here; UniProt P00749 21-68, looked up, fragment)” has a serum half-life [2] of 4.62 h.
For “uPA1-48/PEG50 kD dimeric conjugate: a uPA1-48 molecule conjugated at each end of PEG50 kD (SNELHQVPSNCDCLNGGTCVSNKYFSNIHWCNCPKKFGGQHCEIDKSK; cysteine pairing not given here; also: dimer: one uPA1-48 conjugated at each end of PEG 50 kDa, site not given here; UniProt P00749 21-68, looked up, fragment)”, the serum half-life [2] was 4.8 h.
For “uPA1-48: catalytically inactive protein comprising the first 48 amino acids of human uPA (EGF-like domain), produced in yeast (SNELHQVPSNCDCLNGGTCVSNKYFSNIHWCNCPKKFGGQHCEIDKSK; UniProt P00749 21-68, looked up, fragment)”, the serum half-life [2] was “approximately 10 minutes” and the IC50 (uPAR) was 0.25 nM.

From patent US7022673B2, “Method for increasing the serum half-life of a biologically active molecule” (Chiron Corporation, priority 1998, dated 2006)
